From paper doi:10.1101/2023.06.15.545202

Key:
[1] = target: PAN domain of SpG-type LecRLK-2 (amino acids 322-400), secreted His-Avi-sfGFP fusion (Salix purpurea); test: SEC
[2] = target: PAN domain of SpG-type LecRLK-2R (amino acids 322-400), secreted His-Avi-sfGFP fusion (Salix purpurea); test: SEC

Row | percent in higher-order complex [1] | percent monomeric [1] | percent monomeric [2] | Substance
1 | 48.2% | 51.8% |  | PAN domain of SpG-type LecRLK-2 (amino acids 322-400), secreted His-Avi-sfGFP fusion (domain or fragment)
2 |  |  | 26.4% | PAN domain of SpG-type LecRLK-2R (amino acids 322-400), secreted His-Avi-sfGFP fusion (domain or fragment)
